The values below come from US20190365920A1 (INSERM INSTITUT NATIONAL DE LA SANT ET DE LA RECHERCHE …, published 2019).

For the test, the target named is T1, SLITRK6 (SLIT and NTRK-like family, member 6) (human, UniProt Q9H5Y7 27-841).
T1 construct: whole, on cells; Endogenous SLITRK6 at the membrane of A375 BRAF-mutant melanoma cells after treatment with PLX4032, alone or with AZD6244; also called DFNMYP
T1 sequence (looked up): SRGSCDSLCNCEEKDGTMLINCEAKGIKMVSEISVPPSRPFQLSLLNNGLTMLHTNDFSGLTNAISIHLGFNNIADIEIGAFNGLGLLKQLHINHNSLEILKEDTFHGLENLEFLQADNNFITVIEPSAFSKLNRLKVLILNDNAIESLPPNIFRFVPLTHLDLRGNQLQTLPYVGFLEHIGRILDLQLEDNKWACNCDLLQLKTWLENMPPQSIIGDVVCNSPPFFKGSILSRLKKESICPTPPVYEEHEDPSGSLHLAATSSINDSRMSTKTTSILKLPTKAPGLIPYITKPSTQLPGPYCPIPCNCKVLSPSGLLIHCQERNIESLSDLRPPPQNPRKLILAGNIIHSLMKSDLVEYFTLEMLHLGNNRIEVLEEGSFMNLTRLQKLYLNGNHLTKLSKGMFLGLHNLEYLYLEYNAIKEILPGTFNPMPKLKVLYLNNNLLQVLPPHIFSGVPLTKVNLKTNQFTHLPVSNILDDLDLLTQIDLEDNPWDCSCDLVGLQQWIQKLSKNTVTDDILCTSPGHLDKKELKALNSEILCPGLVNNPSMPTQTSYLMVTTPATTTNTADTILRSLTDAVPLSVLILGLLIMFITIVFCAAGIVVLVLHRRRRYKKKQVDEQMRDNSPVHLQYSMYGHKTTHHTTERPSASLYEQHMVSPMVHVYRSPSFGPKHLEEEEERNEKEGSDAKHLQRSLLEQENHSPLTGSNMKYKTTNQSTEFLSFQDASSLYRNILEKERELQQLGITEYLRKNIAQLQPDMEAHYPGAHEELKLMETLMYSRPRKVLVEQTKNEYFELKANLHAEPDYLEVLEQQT
The test can be described thus: immunofluorescence staining of A375 cells (si-Ctl or si-SLITRK6) treated with PLX4032 alone or with AZD6244.

B1: Hal5-10acl2 antibody directed against SLITRK6 (antibody, V domains shown)
VH: QVQLVESGGGVVQPGRSLRLSCAASGFTFSSYGMHWVRQAPGKGLEWVAVIWYDGSNQYYADSVKGRFTISRDNSKNTLFLQMHSLRAEDTAVYYCARGLTSGRYGMDVWGQGTTVTVSS
VL: DIVMTQSPLSLPVTPGEPASISCRSSQSLLLSHGFNYLDWYLQKPGQSPQLLIYLGSSRASGVPDRFSGSGSGTDFTLKISRVEAEDVGLYYCMQPLQIPWTFGQGTKVEIKR
notes: It is produced by a CHO cell deposited as ATCC PTA-13102; also called HA15-10acl2; the antibody against SLITRK6
Take B1: the binding result is on record as “binds”.
